The results in this text go back to patent US20230340607A1 (UNIVERSITY OF PITTSBURGH OF THE COMMONWEALTH SYSTEM OF …, published 2023).

One experiment concerns the target T1, integrin β1 (UniProt P05556 21-798).
T1 construct: also called ITGB1; integrin B1
In words: co-immunoprecipitation with anti-RAD51AP1 antibody from T47D cell lysate, immunoblot. Here is the method: (§1) To identify the key molecules important for RAD51AP1-DYRK4 to modulate MEK signaling, the RAD51AP1 interactants were investigated with the Entrez Gene database. […] Immuno-precipitation was performed using the RAD51AP1 antibody in the T47D cells overexpressing E9-E2 or wtRAD51AP1.
(§2) Immunoprecipitation. The cells were seeded in 10 cm² dishes with 200 ng/ml for one week. After one week doxycycline treatment, doxycycline-induced T47D OE cells were freshly harvested and lysed in NETN-400 buffer ([…] Tris-HCL, pH 8.0, […] NaCl, 1 mM EDTA, and 0.5% Nonidet P-40) for 25 minutes on ice and then centrifugated for 25 minutes at 14,500 rpm. The supernatants were diluted with the same buffer without NaCl (NETN-0) to obtain a final concentration of NaCl at 150 mM and incubated with indicated antibodies for 2 hours at 4° C., and then added protein-G beads (Santa Cruz) overnight. The beads were washed three times with cell lysis buffer and the precipitated proteins were subjected to western blot analysis.

Another experiment concerns the target c-Src (UniProt P12931 2-536). Described as above. The procedure:
as §1, §2

T1 sequence (P05556 21-798 limits assumed): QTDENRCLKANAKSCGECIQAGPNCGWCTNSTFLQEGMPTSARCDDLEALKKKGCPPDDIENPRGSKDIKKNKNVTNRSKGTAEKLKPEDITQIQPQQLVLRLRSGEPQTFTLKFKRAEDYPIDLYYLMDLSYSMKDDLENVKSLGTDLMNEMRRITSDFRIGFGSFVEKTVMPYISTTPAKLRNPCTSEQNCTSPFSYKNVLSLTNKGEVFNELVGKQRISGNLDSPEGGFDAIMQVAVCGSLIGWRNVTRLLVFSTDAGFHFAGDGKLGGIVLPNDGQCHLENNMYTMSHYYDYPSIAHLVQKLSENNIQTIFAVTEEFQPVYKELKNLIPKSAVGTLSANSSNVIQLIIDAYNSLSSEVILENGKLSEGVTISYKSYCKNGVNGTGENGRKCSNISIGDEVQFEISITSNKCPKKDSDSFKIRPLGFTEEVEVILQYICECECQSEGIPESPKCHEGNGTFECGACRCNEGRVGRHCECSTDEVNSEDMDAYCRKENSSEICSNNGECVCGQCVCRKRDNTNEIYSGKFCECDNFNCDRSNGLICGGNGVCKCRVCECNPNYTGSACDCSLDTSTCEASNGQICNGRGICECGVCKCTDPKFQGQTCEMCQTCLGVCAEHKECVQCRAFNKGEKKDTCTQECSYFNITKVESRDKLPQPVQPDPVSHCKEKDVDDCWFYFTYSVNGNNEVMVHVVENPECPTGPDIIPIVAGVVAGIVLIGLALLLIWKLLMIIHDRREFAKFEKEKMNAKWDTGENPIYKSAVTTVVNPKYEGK

B1: RAD51AP1-DYRK4 fusion protein (E9-E2 variant) (other)
chain: MVRPVRHKKPVNYSQFDHSDSDDDFVSATVPLNKKSRTAPKELKQDKPKPNLNNLRKEEIPVQEKTPKKRMALDDKLYQRDLEVALALSVKELPTVTTNVQNSQDKSIEKHGSSKIETMNKSPHISNCSVASDYLDLDKITVEDDVGGVQGKRKAASKAAAQQRKILLEGSDGDSANDTEPDFAPGEDSEDDSDFCESEDNDEDFSMRKSKVKEIKKKEVKVKSPVEKKEKKSKSKCNALVTSVDSAPAAVKSESQSLPKKVSLSSDTTRKPLEIRSPSAESKKPKWVPPGLKWMLKSQGNVI
notes: Expressed from a doxycycline-inducible lentiviral vector in T47D cells (co-IP, western blot), or endogenous in MDAMB361 cells (western blot); also called E9-E2 protein; E9E2 fusion
In the case of B1, the binding result with integrin β1 and with c-Src was “no binding” each time.
